Reference: patent US20210324050A1 (published 2021)
Where a chain is given by its changes, count along the chain named.

B1: NORO-178.6 (antibody, V domains shown)
VH: QVQLVESGGGVVQPGRSLRLSCAASGFTFSTYGMNWVRQAPGRGLEWVADISYDGSNSRYADSVKGRFTISRDNSKNTLSLQMNGLRTEDTAVYYCAKDWYLAMAGAAFDSWGPGTLVTVSS
VL: SSELTQDPVVSVALGQTVRITCQGDSLTTFYASWFQQKPGQAPALVLYGNDNRPSGIPDRFSGSRSGNTASLTITGAQAEDEADYYCNSRDSSGKPSFGGGTKLTVL
B2: 279A (antibody, V domains shown)
VH: QVQLVESGGGVVQPGRSLRLSCAASGFTFTKYGMHWVRQAPGKGLEWVAFIAYDGSVKYYGDSAKGRFAISRDNPKNTVYLQMNSLRAEDTAVYYCAKVEIHYYSNSLLGMDVWGQGTLVTVSS
VL: QSVLTQPPSASGTPGQRVTISCSGGNSNIGISYVYWYQHLPGTAPKLLISKNNLRPSGVPDRFSASKSGTSASLAISGLRSEDEAEYYCATLDINMTWVFGGGTKLTVL
B3: 202A.1 (antibody, V domains shown)
VH: QVQLVQSGAEVKKPGASVKVSCKASEYTFTGYYLQWVRQAPGHGLEWMGWINPSGGTKYSQKFQGRVTMTRDTSITTVYMELSRLRSDDTAVYYCARDLLRNWGDHDAFDVWGQGTMVTVSS
VL: QSVLTQPPSASETPGQGVTISCSGSSSNIGSNFVCWYQQVPGTAPKLLIYKNNQRPSGVPDRFSGSKSGTSASLAISGLRSEDEADYYCSAWDDSLSGPVFGGGTKLTVL
B4: NORO-296A (antibody, V domains shown)
VH: QVQLVESGGGLVKPGGSLRLSCAASGFTFSEYYMSWVRQAPGKALEWVSYITSSFSSTSYADSVKGRFVISRDNAKNSLYLQMNSLRVEDTAVYYCARYGAEYGSRSFYFLDWGQGTLVTVSS
VL: QSVLTQPPSVSGAPEQRVTISCTGSSSNIGAGYDVHWYQVLPGIAPKLLIYDNNKRPSGVPDRFSGSKSGTSASLAITGLQAEDEADYYCQSYDSRLSSNVVFGGGTKLTVL
B5: NORO-313.1 (antibody, V domains shown)
VH: QVQLVESGGGLVKPGGSLRLSCAASGFTFSDFYMSWIRQAPGKGLEWVGYISSIAGATNYADSVKGRFTISRDSSKRSLYLQMNSLRVEDTAVYYCARMGRLELERRPHYYYPLDVWGQGTLVTVSS
VL: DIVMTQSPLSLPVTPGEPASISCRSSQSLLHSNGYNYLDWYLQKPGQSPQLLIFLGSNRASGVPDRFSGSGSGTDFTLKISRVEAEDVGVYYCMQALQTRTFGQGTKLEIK
B6: NORO-263 (antibody, V domains shown)
VH: QVQLVESGGGLVKPGGSLRLSCAASGFTLSDYYMSWIRQAPGKGLEWVAYISSSHTSTYYRDSVKGRFTISRDSAKKSLYLQMNSLRVEDTAIYYCARDWVGGRSAYSDHWGQGTLVTVSS
VL: SYELTQPPSVSVSPGQTARITCSGDALPRRPAFWYQQKSGQAPVLVMYDDSKRPSGIPERFSGSSSGTVATLTISGAQVEDEADYHCYSTDSSGKERVFGGGTKLTVL
B7: NORO-115 (antibody, V domains shown)
VH: QVQLVESGGGLVKPGGSLRLSCTASGITISGYYMSWIRQAPGKGLEWIVYINTSGRTIYYADSVKGRFSVSRDNAKESLYLQMDSLTVDDTGIYYCARDRLPASGSHWFHPWGQGTLVTVSS
VL: DIVMTQSPDSLAVSLGGRATINCKSSQSVLYTSDNKNYLAWYQQQPGQPPKLLISWASTRESGVPDRFSGSGSGTDFTLTISNLQAEDVAVYYCQQYYNSPLAFGGGTKVEIK
B8: NORO-250B (antibody, V domains shown)
VH: QVQLVESGGGLVKPGGSLTLSCAASGFTFSDYYMNWIRQAPGKRLEWVSYISGIMSSTNYADSVKGRFTISRDTAKKSVYLQMNSLRAEDTAVYYCARATSQGATSYYFDSWGQGTLVTVSS
VL: QSVLTQPPSVSGAPGQRVTISCTGSSSNIGADYDVHWYQQLPGAAPRLLIYADINRPSGVPDRFSGSKSGTSASLAITGLQAEDEADYYCQSYDRSVSGSAVFGGGTKVTVL
B9: NORO-123 (antibody, V domains shown)
VH: QVQLVESGGGVVQPGRSLRLSCSTSGFTFSQYPMHWVRQAPGKGLEWVALISYDGMNKYYADSVRGRFTISRDNSENTQYLQMNSLRGDDTAVYYCARVTGDCTGNRCSYWAYYYYGLDVWGQGTLVTVSS
VL: QSALTQPPSASGSPGQSVTISCTGTSSDVGGYKYVSWYQQHPGKAPKLMIYEVTRRPSGVPDRFSGSKSGNTAFLTVSGLQAEDEADYYCGSYAGSTTSGYVFGTGTKVIVL
B10: NORO-256A (antibody, V domains shown)
VH: QVQLVESGGGVVQAGRSLRLSCAASGFTFRSYGMHWVRQAPGKGLEWVAIISYDGGSKYYADSVKGRFTISRDNSKNTLYLQMNSLRVEDTALYYCAKDFLRVYSYGWHSFDIWGLGTLVTVSS
VL: QSVLTQPPSVSAAPGQRVTISCSGSSSNIGTYYVSWYQHLPGTAPKLLIYDNDKRPSGIPDRFSASKSGTSATLDIAGLQTGDEADYYCGTWDLSLTAGWVFGGGTKLTVL
B11: NORO-251A (antibody, V domains shown)
VH: QVQLVESGGGVVQPGRSLRLSCAASGFTFRSYGIHWVRQAPGKGLEWVALISYDGSSKYYADSVKGRFTISRDNSKNTLYLQMNSLRSEDTAVYYCAKVRLTSYSIGWFSFDYWGQGTLVTVSS
VL: QSVLTQPPSVSAAPGQKVTISCSGSSSNIANYYVSWYQQLPGRAPKLLIYDNNKRPSGIPDRISGSKSGTSATLGITGLQTGDEADYYCGTWDTSLSAWVFGGGTKLTVL
B12: NORO-315B (antibody, V domains shown)
VH: QVQLVESGGGLVKPGGSLRLSCVASGFTFSDYYMTWFRQTPGRGLEWLSYISAIGGYTEYADSVKSRFIISRDNGKKSLYLQMNSLRAEDSGVYYCAREDCHGTSCYSGDWGQGTLVTVSS
VL: QSVLTQPPSVSGAPGQRVTISCTGSSSNIGAGYDVHWYQQLPGTAPKLLIYHNTNRPSGVPDRFSGSKSGTSAYLTITGLQAEDEADYYCQSYDRSLSKSRVFSGGTKLTVL
B13: NORO-278 (antibody, V domains shown)
VH: QVQLVESGGGVVQPGRSLRLSCAASGFTFSSYGMHWVRQAPGKGLEWVAVISYDGSNKYYADSVKGRFTISRDNSKNTLYLQMNSLRAEDTAVYYCAKVTIIAAADLLDYWGQGTLVTVSS
VL: B4 VL with E15G, V40Q, I44T, D52G, N54S, K55N, R96S, S99G, N100P
B14: NORO-303 (antibody, V domains shown)
VH: QVQLVESGGGVVQPGRSLRLSCAASGFIFSSYAMHWVRQAPGKGLEWVAVMSYDGNNKYYADSVKGRFTISRDNSKNTLFLQMNSLRPEDTAVYYCARDCRVGWVFTYGMDVWGQGTLVTVSS
VL: QSALTQPPSASGSPGQSVTISCTGTSSDVGGYNYVSWYQQHPGKAPKLMMYEISKRPSGVPIRFSGSKSGNTASLTVSGLQAEDEADYYCSSYAGTYNCVVFGGGTKLTVL
B15: NORO-317 (antibody, V domains shown)
VH: QVQLVESGGGLVKPGGSLRLSCVASGFTFSDYYISWVRQAPGKGLEWVSYISAINSYTNYADSVRGRFTVSRDNAKKSVFLQMNSLRVDDTAVYYCARDVGGSVRYSSNSNKKSYNYFDPWGQGTLVTVSS
VL: SYELTQPPSVSVSPGQTATITCSGDVLSKEFAYWYQQKPGQAPVLVIYKDNERPSGIPERFSGSTSGTTVTLTISGVLAEDEAHYYCQSVDTRGTYKVFGGGTKLTVL
B16: NORO-329A (antibody, V domains shown)
VH: QVQLVESGGGLVKPGGSLRLSCAASGFTFSDYYMSWIRQAPGKGLEWISYISSSFGSTDYAGSMKGRFTISRDNAKNSLYLQMNSLRAEDTAVYYCARYNYYGSGSFVFDYWGQGTLVTVSS
VL: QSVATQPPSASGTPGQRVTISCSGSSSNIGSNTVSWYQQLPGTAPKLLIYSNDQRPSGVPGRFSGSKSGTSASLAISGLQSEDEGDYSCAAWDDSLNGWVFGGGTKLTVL
B17: NORO-312A (antibody, V domains shown)
VH: QVQLVESGGALVKPGESLRLSCAASGFTFSDSYMSWIRQAPGKGLEWVAYISGIMSSTNYADSVKGRFTISRDNGKNSVYLQMNNLRAEDTAVYYCARDAQYCSGGRCYLVFDYWGQGTLVTVSS
VL: QSVLTQPPSVSGAPGQRVTISCTGSSSNIGAGYEVHWYQQLPGAAPKLIIYGNNNRPSGVPDRFSGSKSGTSASLAITGLQADDEADYYCQSYDNRLRVFGGGTKLTVL
B18: NORO-273A (antibody, V domains shown)
VH: QVQLVQSGAEVKKPGASVKISCKASGYDFTSFPMHWVRLGPGQRLEWMGWISAANGNTKYSQKFQDRFTITRDTSASIVHMELSSLRSEDTAVYYCARGGYSSGLYRYSNYYYGMTVWGQGTLVTVSS
VL: DIVMTQTPLSLSVTPGQPASISCKSSESLLHNDRKTYLFWYLQKPGQPPQLLIFQVSNRFSGVPDRFSGSGSGTDFTLRISRVEAEDVGIYYCLQTTQLPLTFGGGTKVEIK

target: GII.6 (AF414410) VLPs (norovirus GII.6); assay: ELISA

Binder | EC50
B1 | 20 nM

Target: T1, GII.4 Sydney 2012 shell (S) domain (UniProt P54635 1-221)
T1 chain: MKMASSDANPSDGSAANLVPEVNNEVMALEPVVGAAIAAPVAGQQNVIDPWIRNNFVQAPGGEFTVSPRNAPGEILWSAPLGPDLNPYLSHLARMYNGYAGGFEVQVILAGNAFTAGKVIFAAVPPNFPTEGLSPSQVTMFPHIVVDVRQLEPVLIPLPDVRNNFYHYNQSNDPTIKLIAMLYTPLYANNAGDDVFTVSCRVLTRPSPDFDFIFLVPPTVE
Assay: ELISA

Binder | EC50
B1 | 8 nM

target: GII.17 (norovirus GII.17); assay: ELISA

Binder | EC50
B2 | 18 nM

target: GII.13 (norovirus GII.13); assay: ELISA

Binder | EC50
B2 | 10 nM
B3 | 4 nM

target: GI.3 (norovirus GI.3); assay: ELISA

Binder | EC50
B2 | 70 nM

target: GII.3 (norovirus GII.3); assay: ELISA

Binder | EC50
B2 | 14 nM
B3 | 41 nM

target: T2, GII.4 Houston 2002 (ABY27560.1) VLPs (UniProt P54635 1-539); assay: ELISA binding

Binder | EC50
B4 | 0.1 µg/mL
B5 | 0.1 µg/mL
B6 | 0.5 µg/mL
B7 | 1.1 µg/mL
B8 | 0.1 µg/mL
B9 | 0.6 µg/mL
B10 | 0.4 µg/mL
B11 | 0.3 µg/mL
B12 | 0.5 µg/mL
B13 | 0.5 µg/mL

target: Glutathione S-transferase (GST)-tagged GII.4 Sydney 2012 P domain dimers; assay: ELISA

Binder | EC50
B5 | 0.8 µg/mL
B6 | 0.9 µg/mL
B7 | 0.1 µg/mL
B8 | 0.1 µg/mL
B9 | 6.1 µg/mL
B14 | 6.8 µg/mL
B15 | 0.2 µg/mL
B12 | 0.3 µg/mL
B13 | 68.5 µg/mL

Target: T1, GII.4 Sydney 2012 shell (S) domain
Assay: ELISA
Remark: another data set of the same source

Binder | EC50
B4 | 12.5 µg/mL
B16 | 35.8 µg/mL
B17 | 9.9 µg/mL
B10 | 0.4 µg/mL
B11 | 4.1 µg/mL

target: T2, GII.4 Houston 2002 (ABY27560.1) VLPs; assay: VLP blockade

Binder | EC50
B18 | 5.2 µg/mL
B4 | 3.2 µg/mL
B5 | 2.1 µg/mL
B6 | 2.1 µg/mL
B7 | 2.3 µg/mL
B8 | 17.9 µg/mL
B9 | 2.5 µg/mL
B10 | > 100 µg/mL
B14 | > 100 µg/mL
B11 | > 100 µg/mL
B12 | 2.2 µg/mL
B13 | > 100 µg/mL
